In US20220112558:

Biological target: 14-3-3 proteins

B1: ARAF mutant (ARAF-S214P), full-length, with two FLAG tags and two STREP tags, expressed in HEK293T cells (protein)
chain: DYKDDDDKDYKDDDDKWSHPQFEKWSHPQFEKMEPPRGPPANGAEPSRAVGTVKVYLPNKQRTVVTVRDGMSVYDSLDKALKVRGLNQDCCVVYRLIKGRKTVTAWDTAIAPLDGEELIVEVLEDVPLTMHNFVRKTFFSLAFCDFCLKFLFHGFRCQTCGYKFHQHCSSKVPTVCVDMSTNRQQFYHSVQDLSGGSRQHEAPSNRPLNELLTPQGPSPRTQHCDPEHFPFPAPANAPLQRIRSTPTPNVHMVSTTAPMDSNLIQLTGQSFSTDAAGSRGGSDGTPRGSPSPASVSSGRKSPHSKSPAEQRERKSLADDKKKVKNLGYRDSGYYWEVPPSEVQLLKRIGTGSFGTVFRGRWHGDVAVKVLKVSQPTAEQAQAFKNEMQVLRKTRHVNILLFMGFMTRPGFAIITQWCEGSSLYHHLHVADTRFDMVQLIDVARQTAQGMDYLHAKNIIHRDLKSNNIFLHEGLTVKIGDFGLATVKTRWSGAQPLEQPSGSVLWMAAEVIRMQDPNPYSFQSDVYAYGVVLYELMTGSLPYSHIGCRDQIIFMVGRGYLSPDLSKISSNCPKAMRRLLSDCLKFQREERPLFPQILATIELLQRSLPKIERSASEPSLHRTQADELPACLLSAARLVP
**Q.** With B1 as the protein, how does the “activation of ERK1/2, as measured by increased phosphorylation” value read?
**A.** Its value is “significantly greater activation of ERK1/2, as measured by increased phosphorylation, compared with HEK293T cells expressing wildtype (WT) ARAF”.
